From the DeepSol protein solubility set

Assay: soluble on expression in E. coli; label from the status in PepcDB or PDB records

| Sequence | soluble on expression in E. coli |
| --- | --- |
| MIIEHNGNIHKIARMTGNKNNFLEIILSDIHENIKIKPLTIKVKGENVINILPEEVSFYVKQGVDLIYEKYKRKFFISEISFCQSDSRPSSIYAFLTFHLLEDIIKNESPSNYT | not soluble |
| KNNINKTRMNDLNREETRLKTFTDWPLDWLDKRQLAQTGMYFTHAGDKVKCFFCGVEIGSWEQEDQPVPEHQRWSPNCPLLRRRTTNNVPINAEALDRILPPISYDICGANDSTLE | soluble |
| MGSDKIHHHHHHMQQSKEERVHDVFEKISDKYDVMNSVISFQRHKAWRKETMRIMDVKPGSKALDVCCGTADWTIALAEAVGEQGKVVGLDFSENMLSVGKQKVEALQLKQVELLHGNAMELPFEDNTFDYVTIGFGLRNVPDYMHVLKEMTRVVKPGGKVICLETSQPTMIGFRQGYILYFKYIMPLFGKLFAKSYKEYSWLQESASTFPGMKELANMFEKAGLERVQVKPFTFGVAAMHLGMKPESK | not soluble |
| MGSDKIHHHHHHMRPVEHAVIPCAGVGSRLNRGVPKSLTEIDGRTLLGRTLLALEHIPHVFLVVGFRKELVISEALRHRRNLIFVPNEYFDQTNTLYSVKLASRLIRDDFLMVDGDVVFDPSSFASLLGQLQTCDGPAIAYSRRTTEDGVKVRLDMSRGETTCTGFFRGEGAHEWTGIGRLNNRVISGNSLFVYESIERHMPAPAYLVDSMDIDTPADLEIARATYGRHDH | not soluble |
| MSLQNVESELKDIRLPYKTKSLCPECLKILEAEVYEENGKVMIRKVCEEHGEFVDVYWGDAEMFKKAARFAADGHGISTPITQNTTCPFSCGLCNNHKSHTALLNIVLTNRCDLACWYCFFYARRAGYVYEPTIEQIREMVRKAKNMKPIGCNAVQLTGGEPTLRDDLIDIIRMIKEEGYDHIQLNTNGIRLAEDPDFALRVRVAGVNTVYLSFDGVDEKTNPKNHHEIPKILENCRRAQLGLVLVPTVIKGVNDHQLGDIIRFAAENIDIVRGVNFQPVSLVGSMPRKEREQFRITIPDCIKAIEEQTNGEIGREDFYPVPSVVPISRFVEALTGQPQYELTTHFACGMATYIFKDNGRLIPITRFVDVEGLFEFLNEKAEEIAKSRMKTIRAIKDIIDLRKFVDTSKAPKGFNIAKILYEVLIKHDYSTLGEFHVKSLFIGMMHFQDLYNYDIARVERCEIHYGSPDGRIIPFCTFNVIPERYRDAIHEKYGIPIEEWEKRTGRKLKDDIKRAVRRPEGHHHHHH | soluble |
| MAHHHHHHMTESRWITEALVQFSASPIWLTPIDNFVDDNCCIFSNESEMQLEYTVAHNKFKKLIDSLLTCFLMELGVSMETAVEALQSSLAVSVQTSEGLSEQQAAKKLLKQIFNADNFSHFHTMMVKRNLELDILANAALSSDGVCGNGGAALSTEEVEKETRARARVQRAIDVNGDVSEDDALRRAIEVSLQDGTAQQQVQAYRKACIQEDANLQLTAVEHQANSEKAQLEAVLQTQSAQNLPEGEHFRQNHVEPINKQKESQLQPIRAHAMSGKGQKGCDEAEPQKANFNSPESPCPLPALQVPAAASAPVAAPVSVPALPSIGQRQAALPSIPSTITASVLKSAPSAPAHQAHGTAVSATPAPTPIPTKEELEKRAQYMREQREKLLARNRASRQEQLNTFLQNNSSSTTTSSSAALAATGAAQSVTVEIARRLRGDLIGEARKSSG | soluble |
| MSLAAGRSSTSGLVAPDIENPFFPEIIRAFQESTNLSGLEAVGMNTAYDAQRTRGVIERPVSLQVPGAAFFTTQVDSGIKNALAARNIAGVYMDYGDAAPGISSIAVNYPEGMLQAITHLRDLGHRRIGLVGGPAHGAGAQRRKAAFLEGLKTNGIEGRATESDFSVQGGYFSCSKLLASYDCTAVIAANDLMAIGALHLAYDRQIAVPAQLSIIGFDDITFAKFTQPALTTVAVPRAEIGRVAFECRLALMKDPGAAGESHEIPTHLVVRQTTASVGEGHHHHHH | not soluble |
| MAHHHHHHMVDRIEATLNRLIAFGPGTASYTDDAAFLQNVASAMEVAGEIPVLTEACMSLSVDLLENSSPQSAATHAVLTLLACCCMRDDNRELASRFGIFSLCVLLLRSSELLCKDTLLTIFDLIGTLCMSSASTRQMMRPCIPYVLGVMRTHPDCFQLCFSGAVVIGTLVMLDAANAELAAENDCVQILLTAFMRGHDKRKELLNRRRTSYSLRCQREEDESRRLCDNVIRWTEDALQKLVLAPSPVIDAKLEAADFGNYGDRVEVDELMWKLKFGRGKM | not soluble |
| SPRPPDDPGFGPHQRLEKLDSLLSDYDILSLSNIQQHSVRKRDLQTSTHVETLLTFSALKRHFKLYLTSSTERFSQNFKVVVVDGKNESEYTVKWQDFFTGHVVGEPDSRVLAHIRDDDVIIRINTDGAEYNIEPLWRFVNDTKDKRMLVYKSEDIKNVSRLQSPKVCGYLKVDNEELLPKGLVDREPPEGKT | soluble |
